Data on one molecule can be found in patent US20100028924A1, “Method Of Diagnosing Pon1-Hdl Associated Lipid Disorders” (Rappaport Family Institute Research in the Medical Sciences, priority 2006, published 2010).

Data set [1] concerns apoA-I rHDL. Briefly: Inactivation kinetics of human PON1 192 isozymes on rHDL-apoA-I (NTA/β-mercaptoethanol). The data set is classed as biochemical. Conditions: 50-fold molar excess rHDL-apoA-I; NTA and β-mercaptoethanol each 5 mM, 25° C. The protocol: FIGS. 5A-B are graphs showing the inactivation and catalytic stimulation of the human PON1 192R/Q isozymes. FIG. 5A is a line graph showing the inactivation kinetics of human PON1-192R and -192Q in the presence of rHDL-apoA-I. The delipidated isozymes (0.2 μM) were incubated with a 50-fold molar excess of rHDL-apoA-I in activity buffer, and subjected to inactivation by NTA and β-mercaptoethanol (each at 5 mM) at 25° C. Residual activity determined as above (FIG. 1) and data were fitted to a double-exponential function. FIG. 5B is a bar graph showing stimulation of the enzymatic activity of human PON1-192R and -192Q by rHDL-apoA-I. The delipidated isozymes were incubated with a 50-fold molar excess of rHDL-apoA-I, and enzymatic activity was determined with various substrates (at 1 mM for all the substrates, except TBBL at 0.25 mM). The activity is presented in relation to the initial activity of the delipidated enzymes (percentage of stimulation). Each bar represents the mean and S.D. of at least two independent measurements;
Human PON1-192R and Q isozymes purified from pooled blood samples [Gan, K. N., et al., Drug Metab Dispos, 1991. 19(1): p. 100-6] were kindly provided by Dr. Dragomir Draganov (University of Michigan, Ann Arbour), and stored in presence of 0.1% tergitol and 20% glycerol. Prior to assay, these samples were briefly delipidated [Gaidukov, L. and D. S. Tawfik, Biochemistry, 2005. 44(35): p. 11843-54] and dialyzed against activity buffer to remove the tergitol and glycerol that interfere with HDL binding. Dialyzed samples (0.2 μM) were incubated with rHDL (10 μM). Stability assays were performed at 25° C., in activity buffer supplemented with nitrilotriacetic acid (NTA) and β-mercaptoethanol, both at 5 mM. Data analysis was performed as described above for rePON1s. Stimulation of enzymatic activities was measured with various substrates at 1 mM concentration, except for TBBL (0.25 mM).
The progress of inactivation of human PON1 isozymes anchored on rHDL-apoA-I is illustrated in FIG. 5A. Inactivation of both isozymes followed a two-phase kinetics with similar inactivation rates, but different partitioning between the HDL-bound and unbound phases, as detailed in Table 4 hereinbelow. Amplitudes (A) and kinetic rates of inactivation (k^inactiv) were derived by fitting the data to a double-exponential curve.

Data set [2] in a line: Dihydrocoumarin hydrolysis by PON1 isozymes (Vmax). The data set is classed as biochemical. Conditions: Vmax^Q=1.125*Vmax^R. The protocol: Determination of a total PON1 level may be effected by any method known in the art. For example, the level of total PON1 may be determined using an antibody specific for PON1. Preferably, the level of total PON1 is determined by measuring the level of total enzymatically active PON1. Thus for example, the level of total PON1 may be measured using an ELISA assay. Such assays are known in the art—see for example Blatter et al, Biochem J 304 (Pt 2): 549-554. An exemplary method for measuring total PON1's serum concentration comprises assaying PON1 dihydrocoumarin hydrolysis as described in Example 3.

B1: human PON1-192Q: human PON1 192Q isozyme purified from pooled blood samples (protein)
chain: AKLIALTLLGMGLALFRNHQSSYQTRLNALREVQPVELPNCNLVKGIETGSEDLEILPNGLAFISSGLKYPGIKSFNPNSPGKILLMDLNEEDPTVLELGITGSKFDVSSFNPHGISTFTDEDNAMYLLVVNHPDAKSTVELFKFQEEEKSLLHLKTIRHKLLPNLNDIVAVGPEHFYGTNDHYFLDPYLQSWEMYLGLAWSYVVYYSPSEVRVVAEGFDFANGINISPDGKYVYIAELLAHKIHVYEKHANWTLTPLKSLDFNTLVDNISVDPETGDLWVGCHPNGMKIFFYDSENPPASEVLRIQNILTEEPKVTQVYAENGTVLQGSTVASVYKGKLLIGTVFHKALYCEL
Consider B1, for which, in data set [1], the “A2(%) (slow phase, HDL-bound fraction)” value is given as 72%; the “k1^inactiv (first, fast phase)” value was determined as 0.6 h⁻¹; the “k2^inactiv (second, slow phase)” value was 0.01 h⁻¹. In data set [2], the “ratio of Vmax of PON1-192Q and -192R isozymes toward dihydrocoumarin” value turned out to be 1.125.
